In experiment [1] the target is GST-HTTex1p 20QP (unexpanded HTT exon 1 with the proline-rich region). The experiment is described as follows: pull-down.
In experiment [2] the target is GST-HTTex1p 51QP (expanded HTT exon 1 with the proline-rich region). The experiment is described as follows: pull-down.

Regarding “radiolabeled human PIAS1 (from UniProt O75925-1 1-651) (natural protein)”, the percent of 35S-labeled PIAS1 bound turned out to be 7.75% in experiment [1] and 7% in experiment [2].

Values taken from PMC3931302.
